Results from PMC2974754 (The Plant journal : for cell and molecular biology, 2010).
Entries after “also recorded” stand apart in the source; their conditions may differ. Residues, ends and D or L forms follow the SMILES beside them. No end group written: not given here.

How the values were obtained:
[1] = target: BAM1-GFP (transient expression in N. benthamiana) (Arabidopsis thaliana) (UniProt O49545); experiment: radioligand binding
[2] = target: CLV1-GFP (transient expression in N. benthamiana) (Arabidopsis thaliana) (UniProt Q9SYQ8); experiment: radioligand binding
[3] = target: BAM2-GFP (transient expression in N. benthamiana) (Arabidopsis thaliana) (UniProt Q9M2Z1); experiment: radioligand binding
[4] = target: CLV2-MYC (transient expression in N. benthamiana) (Arabidopsis thaliana) (UniProt O80809); experiment: radioligand binding
CLV1 [5] = conditions: truncated CLV1 LRR domain expressed in tobacco BY-2 cells; ref Ogawa et al. 2008; cited from earlier work
Arabidopsis plants = conditions: synthetic peptides treating Arabidopsis plants; ref Kinoshita et al. 2007; cited from earlier work
[6] = stated in peptide description, no test or reference named; cited from earlier work
CLV1 [7] = conditions: cold competitor to radiolabeled CLV3 CLE; ref Kondo et al. 2008, Ogawa et al. 2008; cited from earlier work
[8] = target: T1, CRN-GFP (transient expression in N. benthamiana) (Arabidopsis thaliana, UniProt Q9LYU7 34-401); experiment: co-IP
T1 sequence (looked up): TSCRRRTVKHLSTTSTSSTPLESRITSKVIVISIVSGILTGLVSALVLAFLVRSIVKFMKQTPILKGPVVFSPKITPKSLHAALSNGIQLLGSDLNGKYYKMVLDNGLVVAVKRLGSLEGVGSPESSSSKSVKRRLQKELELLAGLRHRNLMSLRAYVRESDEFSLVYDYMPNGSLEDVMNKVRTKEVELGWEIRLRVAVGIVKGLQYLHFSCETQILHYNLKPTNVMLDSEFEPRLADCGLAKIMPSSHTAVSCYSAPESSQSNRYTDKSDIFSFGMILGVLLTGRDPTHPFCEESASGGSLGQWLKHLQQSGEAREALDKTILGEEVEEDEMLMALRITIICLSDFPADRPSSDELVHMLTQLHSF

[9] = target: T2, CLV1-FLAG (transient expression in N. benthamiana) (Arabidopsis thaliana, UniProt Q9SYQ8 25-980); experiment: co-IP
T2 sequence (looked up): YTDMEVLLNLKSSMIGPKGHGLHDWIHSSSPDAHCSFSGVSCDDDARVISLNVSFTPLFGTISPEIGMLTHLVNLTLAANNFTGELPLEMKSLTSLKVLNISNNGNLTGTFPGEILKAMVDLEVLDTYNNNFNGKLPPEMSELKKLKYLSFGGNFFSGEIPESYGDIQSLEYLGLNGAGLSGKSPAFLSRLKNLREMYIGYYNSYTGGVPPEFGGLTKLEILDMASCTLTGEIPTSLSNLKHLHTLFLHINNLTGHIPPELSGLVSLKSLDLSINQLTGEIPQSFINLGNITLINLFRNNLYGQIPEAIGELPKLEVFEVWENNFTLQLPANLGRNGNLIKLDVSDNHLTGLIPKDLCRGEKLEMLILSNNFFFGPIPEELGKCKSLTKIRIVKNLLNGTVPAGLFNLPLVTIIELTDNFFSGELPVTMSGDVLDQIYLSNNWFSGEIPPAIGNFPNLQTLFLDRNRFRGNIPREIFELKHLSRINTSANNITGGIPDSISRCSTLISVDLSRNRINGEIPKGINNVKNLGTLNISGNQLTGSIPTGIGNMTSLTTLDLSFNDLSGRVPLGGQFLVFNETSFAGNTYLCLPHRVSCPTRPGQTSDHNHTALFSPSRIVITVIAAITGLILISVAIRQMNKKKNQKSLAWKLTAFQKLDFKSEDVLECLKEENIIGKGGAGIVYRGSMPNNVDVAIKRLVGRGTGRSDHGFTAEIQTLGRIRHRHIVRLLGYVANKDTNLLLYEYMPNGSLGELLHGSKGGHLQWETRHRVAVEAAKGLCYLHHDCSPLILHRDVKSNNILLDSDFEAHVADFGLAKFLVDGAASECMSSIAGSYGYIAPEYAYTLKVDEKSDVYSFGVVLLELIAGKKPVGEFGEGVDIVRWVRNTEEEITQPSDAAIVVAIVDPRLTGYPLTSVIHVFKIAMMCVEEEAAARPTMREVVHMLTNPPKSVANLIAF

[10] = target: T3, CLV1-GFP (transient expression in N. benthamiana) (Arabidopsis thaliana, UniProt Q9SYQ8 25-980); experiment: co-IP
T3 sequence (looked up): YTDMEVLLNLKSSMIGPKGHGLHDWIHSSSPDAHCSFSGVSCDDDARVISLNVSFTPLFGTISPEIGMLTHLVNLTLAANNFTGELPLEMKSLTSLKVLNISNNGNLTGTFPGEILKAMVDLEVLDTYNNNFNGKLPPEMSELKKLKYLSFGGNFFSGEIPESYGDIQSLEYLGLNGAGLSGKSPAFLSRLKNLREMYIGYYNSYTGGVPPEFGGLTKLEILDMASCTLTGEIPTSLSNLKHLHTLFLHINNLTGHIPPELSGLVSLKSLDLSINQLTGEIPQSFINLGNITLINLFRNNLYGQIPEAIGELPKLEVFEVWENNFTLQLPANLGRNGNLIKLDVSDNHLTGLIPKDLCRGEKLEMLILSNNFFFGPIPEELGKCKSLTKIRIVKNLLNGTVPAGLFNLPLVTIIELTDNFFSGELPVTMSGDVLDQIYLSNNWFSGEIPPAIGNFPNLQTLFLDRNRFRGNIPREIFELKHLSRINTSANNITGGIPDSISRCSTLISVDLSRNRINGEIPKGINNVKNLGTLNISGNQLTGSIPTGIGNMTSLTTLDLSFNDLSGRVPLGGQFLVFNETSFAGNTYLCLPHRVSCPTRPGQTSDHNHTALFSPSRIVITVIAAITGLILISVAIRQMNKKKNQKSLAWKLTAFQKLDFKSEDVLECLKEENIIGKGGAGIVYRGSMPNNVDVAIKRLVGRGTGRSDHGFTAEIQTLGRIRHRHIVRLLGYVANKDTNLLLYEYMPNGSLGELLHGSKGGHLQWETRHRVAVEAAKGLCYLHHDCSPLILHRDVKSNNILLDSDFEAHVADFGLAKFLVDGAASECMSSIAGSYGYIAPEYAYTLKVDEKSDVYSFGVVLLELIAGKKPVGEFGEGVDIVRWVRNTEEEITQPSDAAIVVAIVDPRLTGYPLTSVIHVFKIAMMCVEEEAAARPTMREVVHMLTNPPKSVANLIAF

Chain of BAM1-GFP (transient expression in N. benthamiana) (Arabidopsis thaliana) (O49545 20-1003): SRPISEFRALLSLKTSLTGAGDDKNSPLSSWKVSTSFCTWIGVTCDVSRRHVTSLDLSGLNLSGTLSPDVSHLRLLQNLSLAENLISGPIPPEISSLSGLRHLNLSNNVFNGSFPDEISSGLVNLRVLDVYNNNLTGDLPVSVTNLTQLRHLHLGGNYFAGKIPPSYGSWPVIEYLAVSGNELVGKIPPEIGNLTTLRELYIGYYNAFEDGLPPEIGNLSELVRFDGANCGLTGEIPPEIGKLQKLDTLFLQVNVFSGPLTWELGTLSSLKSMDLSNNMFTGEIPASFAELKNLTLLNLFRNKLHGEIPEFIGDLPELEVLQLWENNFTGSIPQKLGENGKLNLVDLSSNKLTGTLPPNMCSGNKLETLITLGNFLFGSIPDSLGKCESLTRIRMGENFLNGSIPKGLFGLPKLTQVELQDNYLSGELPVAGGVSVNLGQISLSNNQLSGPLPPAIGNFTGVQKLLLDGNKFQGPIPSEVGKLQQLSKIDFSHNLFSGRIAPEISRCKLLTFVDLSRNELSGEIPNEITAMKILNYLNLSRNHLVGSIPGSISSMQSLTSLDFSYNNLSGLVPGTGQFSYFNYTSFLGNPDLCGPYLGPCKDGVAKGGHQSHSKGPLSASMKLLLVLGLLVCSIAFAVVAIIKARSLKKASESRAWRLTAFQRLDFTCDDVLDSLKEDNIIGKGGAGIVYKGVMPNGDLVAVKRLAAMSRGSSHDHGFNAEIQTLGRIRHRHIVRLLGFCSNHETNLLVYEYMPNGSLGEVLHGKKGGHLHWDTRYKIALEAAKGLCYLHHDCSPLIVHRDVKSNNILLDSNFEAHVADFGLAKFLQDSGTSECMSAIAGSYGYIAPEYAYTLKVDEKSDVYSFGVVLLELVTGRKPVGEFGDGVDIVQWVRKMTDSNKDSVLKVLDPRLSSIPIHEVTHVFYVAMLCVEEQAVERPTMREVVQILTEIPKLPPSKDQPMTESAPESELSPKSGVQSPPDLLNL

Molecule 125I-radiolabeled CLV3 CLE peptide has a Kd [1] of 26 nM, a Kd [2] of 30 nM and a Kd [3] of 36 nM. It also gave a Kd [4] of 32 nM.

For CC(C)C[C@H](NC(=O)[C@@H]1CCCN1C(=O)[C@H](CC(=O)O)NC(=O)[C@@H]1CCCN1C(=O)CNC(=O)[C@H](CO)NC(=O)[C@@H]1CCCN1C(=O)[C@@H](NC(=O)[C@@H](NC(=O)[C@@H](N)CCCNC(=N)N)[C@@H](C)O)C(C)C)C(=O)N[C@@H](Cc1c[nH]cn1)C(=O)N[C@@H](Cc1c[nH]cn1)C(=O)O [CLV3 CLE] (H-RTVPSGPDPLHH-OH), the “binding to CLV1 (LRR / extracellular domain)” value (CLV1 [5]) is given as “bind to the truncated CLV1 LRR domain; also recorded: binds to the CLV3 CLE peptide through its extracellular domain”.

In the case of “CLE25: CLE peptide (RKVPNGPDPIHN; ends and bridges not checked; UniProt Q8LFL4 58-69, looked up)”, the “effect on size of the SAM” value (Arabidopsis plants) is given as “caused reduced size of the SAM”.

In the case of “CLV3L: CLV3L (Arg70-Pro96) which includes the full CLV3 CLE domain plus the extended C-terminal tail and is partially functional (RTVPSGPDPLHHHVNPPRQPRNNFQLP; ends and bridges not checked; UniProt Q9XF04 70-96, looked up, fragment)”, the “functionality of the peptide” value [6] is listed as “partially functional”.

In the case of “CLV3S: CLV3S (Thr71-His81) which only contains a portion of the CLE domain and is nonfunctional (TVPSGPDPLHH; ends and bridges not checked)”, the “functionality of the peptide” value [6] is listed as “nonfunctional” and the “competition of CLV3S at CLV1, previously reported” value (CLV1 [7]) is listed as “unable to compete”.

B1: CLV2-MYC (transient expression in N. benthamiana) (receptor, Arabidopsis thaliana, UniProt O80809 26-720, looked up)
chain: QLPDLDPQDKASLLIFRVSIHDLNRSLSTWYGSSCSNWTGLACQNPTGKVLSLTLSGLNLSSQIHPSLCKLSSLQSLDLSHNNFSGNIPSCFGSLRNLRTLNLSRNRFVGSIPATFVSLKELREVVLSENRDLGGVVPHWFGNFSMNLERVDFSFCSFVGELPESLLYLKSLKYLNLESNNMTGTLRDFQQPLVVLNLASNQFSGTLPCFYASRPSLSILNIAENSLVGGLPSCLGSLKELSHLNLSFNGFNYEISPRLMFSEKLVMLDLSHNGFSGRLPSRISETTEKLGLVLLDLSHNSFSGDIPLRITELKSLQALRLSHNLLTGDIPARIGNLTYLQVIDLSHNALTGSIPLNIVGCFQLLALMISNNNLSGEIQPELDALDSLKILDISNNHISGEIPLTLAGLKSLEIVDISSNNLSGNLNEAITKWSNLKYLSLARNKFSGTLPSWLFKFDKIQMIDYSSNRFSWFIPDDNLNSTRFKDFQTGGGEGFAEPPGKVEIKISAAVVAKDELSFSYNLLSMVGIDLSDNLLHGEIPEALFRQKNIEYLNLSYNFLEGQLPRLEKLPRLKALDLSHNSLSGQVIGNISAPPGLTLLNLSHNCFSGIITEKEGLGKFPGALAGNPELCVETPGSKCDPANIDASQEEIYQNELVEGPISIWIFCLSAFISFDFGVLGIFCSARARSYILQTKA
Work on B1 yielded a percent co-immunoprecipitated [8] of ~20% and a percent co-immunoprecipitated [9] of 2.5%.

B2: BAM2-FLAG (transient expression in N. benthamiana) (receptor, Arabidopsis thaliana, UniProt Q9M2Z1 23-1002, looked up)
chain: KPITELHALLSLKSSFTIDEHSPLLTSWNLSTTFCSWTGVTCDVSLRHVTSLDLSGLNLSGTLSSDVAHLPLLQNLSLAANQISGPIPPQISNLYELRHLNLSNNVFNGSFPDELSSGLVNLRVLDLYNNNLTGDLPVSLTNLTQLRHLHLGGNYFSGKIPATYGTWPVLEYLAVSGNELTGKIPPEIGNLTTLRELYIGYYNAFENGLPPEIGNLSELVRFDAANCGLTGEIPPEIGKLQKLDTLFLQVNAFTGTITQELGLISSLKSMDLSNNMFTGEIPTSFSQLKNLTLLNLFRNKLYGAIPEFIGEMPELEVLQLWENNFTGSIPQKLGENGRLVILDLSSNKLTGTLPPNMCSGNRLMTLITLGNFLFGSIPDSLGKCESLTRIRMGENFLNGSIPKELFGLPKLSQVELQDNYLTGELPISGGGVSGDLGQISLSNNQLSGSLPAAIGNLSGVQKLLLDGNKFSGSIPPEIGRLQQLSKLDFSHNLFSGRIAPEISRCKLLTFVDLSRNELSGDIPNELTGMKILNYLNLSRNHLVGSIPVTIASMQSLTSVDFSYNNLSGLVPSTGQFSYFNYTSFVGNSHLCGPYLGPCGKGTHQSHVKPLSATTKLLLVLGLLFCSMVFAIVAIIKARSLRNASEAKAWRLTAFQRLDFTCDDVLDSLKEDNIIGKGGAGIVYKGTMPKGDLVAVKRLATMSHGSSHDHGFNAEIQTLGRIRHRHIVRLLGFCSNHETNLLVYEYMPNGSLGEVLHGKKGGHLHWNTRYKIALEAAKGLCYLHHDCSPLIVHRDVKSNNILLDSNFEAHVADFGLAKFLQDSGTSECMSAIAGSYGYIAPEYAYTLKVDEKSDVYSFGVVLLELITGKKPVGEFGDGVDIVQWVRSMTDSNKDCVLKVIDLRLSSVPVHEVTHVFYVALLCVEEQAVERPTMREVVQILTEIPKIPLSKQQAAESDVTEKAPAINESSPDSGSPPDLLSN
Molecule B2 has a percent co-immunoprecipitated [10] of 10%.
